Consider one molecule from publication PMC4901202, “Sld3-MCM Interaction Facilitated by Dbf4-Dependent Kinase Defines an Essential Step in Eukaryotic DNA Replication Initiation” (Frontiers in Microbiology, 2016).

This assay addresses T1, 6His-Sld3 (budding yeast, UniProt P53135 1-668).
T1 construct: Sld3, budding yeast; Tag end read from the printed order 6His-SLD3; also called pET28a-SLD3; source: E. coli BL21 (DE3) CodonPlus RIL, purified (Ni2+ columns); not shown: 6His, N-terminal, kept
T1 sequence (looked up): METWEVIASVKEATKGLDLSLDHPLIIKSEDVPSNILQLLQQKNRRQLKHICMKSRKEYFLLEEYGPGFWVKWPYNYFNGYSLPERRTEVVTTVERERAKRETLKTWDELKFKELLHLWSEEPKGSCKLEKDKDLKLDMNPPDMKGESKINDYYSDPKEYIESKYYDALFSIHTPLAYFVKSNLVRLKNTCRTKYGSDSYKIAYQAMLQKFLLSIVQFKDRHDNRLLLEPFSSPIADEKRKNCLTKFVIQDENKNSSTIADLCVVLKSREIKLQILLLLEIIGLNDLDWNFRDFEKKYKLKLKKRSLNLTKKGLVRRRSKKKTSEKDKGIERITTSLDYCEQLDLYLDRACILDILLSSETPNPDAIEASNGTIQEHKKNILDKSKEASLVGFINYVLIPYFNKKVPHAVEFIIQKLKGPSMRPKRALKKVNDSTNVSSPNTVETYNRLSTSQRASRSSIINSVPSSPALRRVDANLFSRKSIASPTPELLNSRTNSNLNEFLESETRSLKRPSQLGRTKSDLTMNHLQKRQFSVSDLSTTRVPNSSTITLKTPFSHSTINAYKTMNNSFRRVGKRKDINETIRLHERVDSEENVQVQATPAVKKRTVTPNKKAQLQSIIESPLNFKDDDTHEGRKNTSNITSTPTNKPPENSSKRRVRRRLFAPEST
Kind of assay: pull-down; 2 μg 6His-Sld3 and 5 μg GST-Mcm6 or GST-Mcm2 with glutathione-Sepharose beads; 40 mM Tris-HCl pH 7.5, 100 mM NaCl, 0.1 mM EDTA, 10% glycerol, 0.1% Triton X-100, 1 mM DTT, 1 mg/ml BSA; 1 h at 4°C; immunoblots with anti-His and anti-GST. As to conditions: both partners purified. Background: In western blotting, separated proteins are transferred to a membrane and probed.

B1: GST-Mcm2N (1–390) (domain or fragment, budding yeast, UniProt P29469 1-390, looked up)
chain: MSDNRRRRREEDDSDSENELPPSSPQQHFRGGMNPVSSPIGSPDMINPEGDDNEVDDVPDIDEVEEQMNEVDLMDDNMYEDYAADHNRDRYDPDQVDDREQQELSLSERRRIDAQLNERDRLLRNVAYIDDEDEEQEGAAQLDEMGLPVQRRRRRRQYEDLENSDDDLLSDMDIDPLREELTLESLSNVKANSYSEWITQPNVSRTIARELKSFLLEYTDETGRSVYGARIRTLGEMNSESLEVNYRHLAESKAILALFLAKCPEEMLKIFDLVAMEATELHYPDYARIHSEIHVRISDFPTIYSLRELRESNLSSLVRVTGVVTRRTGVFPQLKYVKFNCLKCGSILGPFFQDSNEEIRISFCTNCKSKGPFRVNGEKTVYRNYQRVTL
notes: Mcm2, budding yeast, residues 1-390; Tag end read from the printed order GST-mcm2(1–390); also called GST-Mcm2 (1–390); pGEX-4T -1-mcm2(1–390); source: E. coli BL21 (DE3) CodonPlus RIL, purified as previously described (Quan et al., 2015); not shown: GST, N-terminal, kept
As for B1, the binding result was “binds”.
